Results: the supplement of paper PMC7877785
± gives the uncertainty stated by the source.

Experiment: self-splicing fitness, log relative to wild type (ln ratio); higher = more splicing; Tetrahymena group I intron in knt gene, E. coli kanamycin selection, DiMSum; sequences stand for … in CUCUCU…GGAGGGAAAAGUUAUCAGGCAUGCACCUGGUAGCUAGUCUUUAAACCAAUAGAUUGCAUCGGUUUAAAAGGCAAGACCGUCAAAUUGCGGGAAAGGGGUCAACAGCCGUUCAGUACCAAGUCUCAGGGGAAACUUUGAGAUGGCCUUGCAAAGGGUAUGGUAAUAAGCUGACGGACAUGGUCCUAACCACGCAGCCAAGUCCUAAGUCAACAGAUCUUCUGUUGAUAUGGAUGCAGUUCACAGACUAAAUGUCGGUCGGGGAAGAUGUAUUCUUCUCAUAAGAUAUAGUCGGACCUCUCCUUAAUGGGAGCUAGCGGAUGAAGUGAUGCAACACUGGAGCCGCUGGGAACUAAUUUGUAUGCGAAAGUAUAUUGAUUAGUUUUGGAGUACUCGUGGUCG
Method in brief: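 Pooled colonies went to amplicon sequencing on an Illumina HiSeq 2500 after six replicate transformations. The plates were LB agar with 100 μg/mL carbenicillin, 50 μM IPTG and 0.2% rhamnose, with or without 25 μg/mL kanamycin, incubated overnight at 37°C or 30°C. The E. coli BL21(DE3) library had all eight P1ex-region intron nucleotides randomised, the intron placed in the knt kanamycin-resistance gene on pET-22b(+). DiMSum fitness is the error-weighted combination of replicate fold changes, kanamycin against none, normalised to wild type.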

Row | Sequence | self-splicing fitness (ln) (30 °C) | self-splicing fitness (ln) (37 °C)
1 | GGUUAGCAAUAUUACGACUU | -0.187 ± 0.12 | 1.17 ± 0.16
2 | CGAUAGCAAUAUUACGCUUC | -3.11 ± 0.26 | -2.99 ± 0.47
3 | CCUUAGCAAUAUUACGGCAC | -3.69 ± 0.29 | -2.71 ± 0.44
4 | UACUAGCAAUAUUACGUAGC | -2.83 ± 0.17 | -2.19 ± 0.27
5 | UGGCAGCAAUAUUACGUGAC | -2.83 ± 0.31 | -1.22 ± 0.25
6 | CCCUAGCAAUAUUACGUCGC | -3.12 ± 0.21 | -2.64 ± 0.25
7 | GCAAAGCAAUAUUACGUCUC | -1.02 ± 0.11 | -0.501 ± 0.12
8 | GGGGAGCAAUAUUACGGGUA | -2.64 ± 0.26 | -2.25 ± 0.34
9 | UGGCAGCAAUAUUACGAAUG | -0.811 ± 0.061 | 0.188 ± 0.079
10 | AGAGAGCAAUAUUACGAUGG | -4.56 ± 0.36 | -1.17 ± 0.29
11 | AAUGAGCAAUAUUACGUGUA | -3.35 ± 0.23 | -2.56 ± 0.21
12 | CUCUAGCAAUAUUACGCUGU | -3.07 ± 0.31 | -3.24 ± 0.29
13 | GACCAGCAAUAUUACGCCGU | -0.962 ± 0.075 | -0.0427 ± 0.08
14 | UUGGAGCAAUAUUACGUUGG | -1.5 ± 0.27 | -2.92 ± 0.28
15 | CGGUAGCAAUAUUACGAGGC | – | -0.808 ± 0.29
16 | GGCCAGCAAUAUUACGAUUA | -3.4 ± 0.21 | -2.05 ± 0.15
17 | GCCGAGCAAUAUUACGGCAG | -3.94 ± 0.29 | -2.61 ± 0.33
18 | AUCAAGCAAUAUUACGGAGC | -2.98 ± 0.28 | -1.92 ± 0.25
19 | GCGUAGCAAUAUUACGGGAC | -2.1 ± 0.15 | -2.17 ± 0.2
20 | GUAGAGCAAUAUUACGGACU | -1.4 ± 0.18 | -0.459 ± 0.23
21 | GAGUAGCAAUAUUACGUGGC | -2.33 ± 0.15 | -2.03 ± 0.28
22 | ACUAAGCAAUAUUACGGCUC | -0.0701 ± 0.093 | 0.329 ± 0.11
23 | CCUCAGCAAUAUUACGCUGU | -2.84 ± 0.17 | -2.05 ± 0.25
24 | CCUCAGCAAUAUUACGGUAU | -4.53 ± 0.24 | -2.52 ± 0.15
25 | CAUAAGCAAUAUUACGAUGU | -3.66 ± 0.14 | -2.3 ± 0.14
26 | AUGAAGCAAUAUUACGGGCA | 0.212 ± 0.079 | 0.459 ± 0.09

Row | Sequence | self-splicing fitness (ln) (30 °C) | self-splicing fitness (ln) (37 °C)
27 | AAGUAGCAAUAUUACGCUGU | -3.66 ± 0.25 | -1.87 ± 0.14
28 | ACCUAGCAAUAUUACGAUCA | -1.23 ± 0.17 | -1.19 ± 0.18
29 | GCGUAGCAAUAUUACGAGGA | -1.09 ± 0.42 | –
30 | UAUAAGCAAUAUUACGCUCA | -0.3 ± 0.14 | 0.688 ± 0.21
31 | AACCAGCAAUAUUACGCGCA | -0.111 ± 0.068 | -0.00763 ± 0.089
32 | AGGUAGCAAUAUUACGACAA | -0.614 ± 0.018 | -0.295 ± 0.035
33 | UGCGAGCAAUAUUACGUUAA | -2.48 ± 0.29 | -2.45 ± 0.31
34 | CCCAAGCAAUAUUACGUUUC | -3.63 ± 0.16 | -2.76 ± 0.15
35 | UUUUAGCAAUAUUACGUGCG | -1.42 ± 0.17 | -0.84 ± 0.13
36 | GCCAAGCAAUAUUACGUUGG | -3.36 ± 0.27 | -2.6 ± 0.19
37 | CCGUAGCAAUAUUACGAACC | – | -2.06 ± 0.45
38 | UGGGAGCAAUAUUACGACUA | -1.68 ± 0.35 | 0.369 ± 0.3
39 | GGGAAGCAAUAUUACGACAG | -3.01 ± 0.31 | -3 ± 0.37
40 | GCCGAGCAAUAUUACGAAGA | -2.76 ± 0.16 | -2.03 ± 0.12
41 | CACUAGCAAUAUUACGUACA | -2.35 ± 0.21 | -1.29 ± 0.4
42 | AUGCAGCAAUAUUACGCGUC | -3.6 ± 0.2 | -3.05 ± 0.16
43 | GCACAGCAAUAUUACGAGAC | -2.51 ± 0.17 | -2.06 ± 0.18
44 | AACAAGCAAUAUUACGGCAA | -0.882 ± 0.069 | 0.119 ± 0.077
45 | CGCAAGCAAUAUUACGUCCG | -0.62 ± 0.12 | 0.53 ± 0.2
46 | CUUUAGCAAUAUUACGCUUC | – | -2.32 ± 0.38
47 | ACAAAGCAAUAUUACGAAGC | -3.71 ± 0.22 | -0.444 ± 0.15
48 | ACUGAGCAAUAUUACGCCUA | -2.23 ± 0.17 | -1.42 ± 0.18
49 | CUUCAGCAAUAUUACGAGAA | – | -0.0336 ± 0.41
50 | ACUGAGCAAUAUUACGGUGG | -3.61 ± 0.16 | -2.37 ± 0.18
51 | ACGGAGCAAUAUUACGAAAU | -2.71 ± 0.22 | -1.76 ± 0.24
52 | GUAAAGCAAUAUUACGGCGG | -1.39 ± 0.1 | -1.76 ± 0.16

Row | Sequence | self-splicing fitness (ln) (30 °C) | self-splicing fitness (ln) (37 °C)
53 | AAGCAGCAAUAUUACGUGGU | -4.16 ± 0.2 | -1.27 ± 0.11
54 | UCAUAGCAAUAUUACGCUUC | – | -2.26 ± 0.23
55 | UGUCAGCAAUAUUACGUGCG | -0.00445 ± 0.076 | 0.159 ± 0.092
56 | GGAUAGCAAUAUUACGAAUG | -2.73 ± 0.18 | -1.87 ± 0.2
57 | GGGAAGCAAUAUUACGUCCA | 0.145 ± 0.14 | 0.69 ± 0.16
58 | AGGGAGCAAUAUUACGGACU | -1.03 ± 0.16 | 0.483 ± 0.22
59 | CGGUAGCAAUAUUACGUAGA | -1.73 ± 0.053 | -1.89 ± 0.082
60 | GGGCAGCAAUAUUACGCGCU | -2.33 ± 0.19 | -1.44 ± 0.35
61 | GAAAAGCAAUAUUACGUGAG | -1.53 ± 0.068 | -1.47 ± 0.11
62 | CGUAAGCAAUAUUACGUCUG | -0.285 ± 0.085 | 0.29 ± 0.1
63 | CUGAAGCAAUAUUACGCGGG | -1.65 ± 0.17 | -1.83 ± 0.19
64 | CGAGAGCAAUAUUACGUUCA | -2.34 ± 0.21 | -2.69 ± 0.31
65 | AUCAAGCAAUAUUACGUUAG | -3.1 ± 0.14 | -3.05 ± 0.2
66 | UGAGAGCAAUAUUACGAGGC | -2.98 ± 0.22 | -2.17 ± 0.33
67 | CAAGAGCAAUAUUACGGGUG | -1.74 ± 0.078 | -1.17 ± 0.1
68 | UAUUAGCAAUAUUACGACGG | -0.886 ± 0.35 | 0.0207 ± 0.33
69 | GGCGAGCAAUAUUACGUUCA | -0.77 ± 0.1 | 0.0965 ± 0.13
70 | GGGAAGCAAUAUUACGCCGU | -0.357 ± 0.36 | -0.232 ± 0.31
71 | AGCUAGCAAUAUUACGCGGU | -4.02 ± 0.27 | -1.71 ± 0.13
72 | UCUUAGCAAUAUUACGCUUC | -4.09 ± 0.35 | -2.41 ± 0.19
73 | CAUCAGCAAUAUUACGCGAA | -3.13 ± 0.14 | -1.93 ± 0.12
74 | GCCCAGCAAUAUUACGCCGA | -1.86 ± 0.13 | -1.2 ± 0.12
75 | AUGAAGCAAUAUUACGGAGU | -1.4 ± 0.089 | -0.447 ± 0.094
76 | CAGUAGCAAUAUUACGAAGC | – | -3.05 ± 0.32
77 | UGUGAGCAAUAUUACGUGAA | – | -1.69 ± 0.23
78 | ACCCAGCAAUAUUACGCGGG | -3.6 ± 0.13 | -3.08 ± 0.16
